Measurements: IntAct's records for PubMed 24325460

B1: Isocitrate dehydrogenase [NADP] (Bacillus subtilis), P39126 (parent)
chain: MAQGEKITVSNGVLNVPNNPIIPFIEGDGTGPDIWNAASKVLEAAVEKAYKGEKKITWKEVYAGEKAYNKTGEWLPAETLDVIREYFIAIKGPLTTPVGGGIRSLNVALRQELDLFVCLRPVRYFTGVPSPVKRPEDTDMVIFRENTEDIYAGIEYAKGSEEVQKLISFLQNELNVNKIRFPETSGIGIKPVSEEGTSRLVRAAIDYAIEHGRKSVTLVHKGNIMKFTEGAFKNWGYELAEKEYGDKVFTWAQYDRIAEEQGKDAANKAQSEAEAAGKIIIKDSIADIFLQQILTRPNEFDVVATMNLNGDYISDALAAQVGGIGIAPGANINYETGHAIFEATHGTAPKYAGLDKVNPSSVILSGVLLLEHLGWNEAADLVIKSMEKTIASKVVTYDFARLMDGATEVKCSEFGEELIKNMD
partner: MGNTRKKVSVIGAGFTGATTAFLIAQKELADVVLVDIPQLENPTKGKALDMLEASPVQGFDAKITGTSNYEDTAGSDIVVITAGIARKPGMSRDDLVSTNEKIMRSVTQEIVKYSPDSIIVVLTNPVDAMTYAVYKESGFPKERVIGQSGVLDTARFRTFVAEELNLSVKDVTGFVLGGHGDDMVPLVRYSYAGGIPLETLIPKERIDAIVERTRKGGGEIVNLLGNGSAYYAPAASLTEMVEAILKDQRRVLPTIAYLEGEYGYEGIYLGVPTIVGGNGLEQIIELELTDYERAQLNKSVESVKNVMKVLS

Variants of: B1
Conditions: with mdh_bacsu mdh
With MAQGEKITVSNGVLNVPNNPIIPFIEGDGTGPDIWNAASKVLEAAVEKAYKGEKKITWKEVYAGEKAYNKTGEWLPAETLDVIREYFIAIKGPLTTPVGGGIRPLNVALRQELDLFVCLRPVRYFTGVPSPVKRPEDTDMVIFRENTEDIYAGIEYAKGSEEVQKLISFLQNELNVNKIRFPETSGIGIKPVSEEGTSRLVRAAIDYAIEHGRKSVTLVHKGNIMKFTEGAFKNWGYELAEKEYGDKVFTWAQYDRIAEEQGKDAANKAQSEAEAAGKIIIKDSIADIFLQQILTRPNEFDVVATMNLNGDYISDALAAQVGGIGIAPGANINYETGHAIFEATHGTAPKYAGLDKVNPSSVILSGVLLLEHLGWNEAADLVIKSMEKTIASKVVTYDFARLMDGATEVKCSEFGEELIKNMD [S104P] the “effect of a mutation on the interaction” value was “increasing interaction”.
